The text below walks through data of article PMC7062800.

Data set [1] relates to RdhK Hybrid A (Desulfitobacterium hafniense DCB-2 (chimera)). The data set can be described thus: EMSA. The following applies: 200 uM Cl-OHPA; EMSA: 100 ng DNA, 2 uM protein, 200 uM effector, 15 uL; buffer 100 mM Tris-HCl pH 8.5, 40% glycerol, 10 mM MgCl2, 500 mM NaCl, 5 mM EDTA, 10 mM DTT ….
The subject of data set [2] is RdhK Hybrid B (Desulfitobacterium hafniense DCB-2 (chimera)). Nature of the data set: EMSA. The following applies: 200 uM Cl-OHPA; EMSA: 100 ng DNA, 2 uM protein, 200 uM effector, 15 uL; buffer 100 mM Tris-HCl pH 8.5, 40% glycerol, 10 mM MgCl2, 500 mM NaCl, 5 mM EDTA, 10 mM DTT ….

For the sequence “GAATTCTCAGGCGATGTAACCGCTTTCAAAGTTAATACACATTAATACTCTTAACAATGTGATAGCTATGATTGCACCG (double strand) [mgl-DB7]”, in data set [1], the binding signal is 90 % DNA bound. Turning to “GAATTCTCAGGCGATGTAACCGCTTTCAAATTTAGTATACGCTAAATATCTTAACAATGTGATAGCTATGATTGCACCG (double strand) [mgl-DB8]”, the binding signal in data set [2] and in data set [1] was 100 % DNA bound throughout.
